Source: article doi:10.1101/2025.07.01.662498, “Automodification of N-terminal serine residues in PARP2 impacts PARP2 release from DNA damage sites”

Target: PARP2 WT (human, UniProt Q9UGN5 1-583)
Experiment: fluorescence polarization; HPF1 not mentioned for this value; 10 mM HEPES pH 8.0, 150 mM NaCl, 0.1 mg/ml BSA, 0.1 mM TCEP, 0.1 mM EDTA, 25 C (FP)
Settings: protein: recombinant; tags: His6-TEV, tag cleaved; nicked dumbbell: two hairpins with TTTT loops, one strand

PARP2 WT, sequence (Q9UGN5 whole entry): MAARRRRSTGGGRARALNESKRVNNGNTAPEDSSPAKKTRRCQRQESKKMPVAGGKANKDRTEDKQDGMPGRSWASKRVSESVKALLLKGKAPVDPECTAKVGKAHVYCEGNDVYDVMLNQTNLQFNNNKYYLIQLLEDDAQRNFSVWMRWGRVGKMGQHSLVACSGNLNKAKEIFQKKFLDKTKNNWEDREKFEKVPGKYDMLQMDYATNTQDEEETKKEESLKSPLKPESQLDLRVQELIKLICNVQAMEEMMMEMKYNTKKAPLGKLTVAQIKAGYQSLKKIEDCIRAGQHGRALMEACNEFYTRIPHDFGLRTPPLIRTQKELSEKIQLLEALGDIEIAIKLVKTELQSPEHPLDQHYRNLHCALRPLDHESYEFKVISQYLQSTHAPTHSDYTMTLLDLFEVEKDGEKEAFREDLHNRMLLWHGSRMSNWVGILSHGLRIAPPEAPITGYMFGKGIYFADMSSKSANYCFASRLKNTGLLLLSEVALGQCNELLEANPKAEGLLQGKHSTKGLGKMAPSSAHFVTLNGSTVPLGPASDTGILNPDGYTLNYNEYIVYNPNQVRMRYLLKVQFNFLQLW

GGAAGTCTTTTGACTTCCTCGAAGCTTTTGCTTCGA (structured_DNA, 5'-phosphate) [fluorescein-labelled nicked dumbbell DNA, 5'-phosphate] showed a Kd of 4.8 ± 2.9 nM.
